Assay results taken from patent publication JP2014141434A (dated 2014).

Key:
Experiment in all cases: flow cytometry, transfected HEK293 cells, 10 μg/mL
[1] = molecular target: T1, N末端FLAG−tag付加型カニクイザルROBO4 cynoROBO4−2 (cynomolgus monkey, UniProt Q8WZ75 28-1007 (human entry))
T1 construct: also called pCI−FLAG−cynoROBO4−2
T1 chain: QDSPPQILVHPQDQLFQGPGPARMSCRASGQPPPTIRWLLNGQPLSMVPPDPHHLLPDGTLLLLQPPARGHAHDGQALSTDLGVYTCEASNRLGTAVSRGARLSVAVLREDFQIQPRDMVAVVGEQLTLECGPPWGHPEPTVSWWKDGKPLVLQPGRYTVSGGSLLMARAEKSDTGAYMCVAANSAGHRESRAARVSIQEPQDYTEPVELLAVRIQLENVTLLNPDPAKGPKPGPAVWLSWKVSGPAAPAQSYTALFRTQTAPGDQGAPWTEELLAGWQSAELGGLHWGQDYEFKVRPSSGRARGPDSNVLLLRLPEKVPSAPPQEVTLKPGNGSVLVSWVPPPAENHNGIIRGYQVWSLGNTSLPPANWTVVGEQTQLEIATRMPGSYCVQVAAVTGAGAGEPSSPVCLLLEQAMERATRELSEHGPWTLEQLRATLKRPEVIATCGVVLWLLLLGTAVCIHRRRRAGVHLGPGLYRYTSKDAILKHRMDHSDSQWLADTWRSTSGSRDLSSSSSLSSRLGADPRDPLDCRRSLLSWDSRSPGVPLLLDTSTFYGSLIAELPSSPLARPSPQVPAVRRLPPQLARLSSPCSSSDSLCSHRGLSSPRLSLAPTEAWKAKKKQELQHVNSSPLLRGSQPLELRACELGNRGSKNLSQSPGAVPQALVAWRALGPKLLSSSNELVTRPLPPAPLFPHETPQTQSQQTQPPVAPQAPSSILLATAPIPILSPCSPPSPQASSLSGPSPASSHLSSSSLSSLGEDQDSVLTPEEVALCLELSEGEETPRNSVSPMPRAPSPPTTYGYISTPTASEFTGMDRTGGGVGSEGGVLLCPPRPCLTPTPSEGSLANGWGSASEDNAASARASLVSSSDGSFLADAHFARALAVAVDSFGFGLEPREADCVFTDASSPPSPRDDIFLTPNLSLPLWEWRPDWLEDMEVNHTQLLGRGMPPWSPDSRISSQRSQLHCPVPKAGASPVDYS

[2] = molecular target: T2, N末端FLAG−tag付加型全長ヒトROBO4 hROBO4−28 (human, UniProt Q8WZ75 28-1007)
T2 construct: On HEK293 cells; also called pCI−FLAG−hROBO4−28
T2 sequence: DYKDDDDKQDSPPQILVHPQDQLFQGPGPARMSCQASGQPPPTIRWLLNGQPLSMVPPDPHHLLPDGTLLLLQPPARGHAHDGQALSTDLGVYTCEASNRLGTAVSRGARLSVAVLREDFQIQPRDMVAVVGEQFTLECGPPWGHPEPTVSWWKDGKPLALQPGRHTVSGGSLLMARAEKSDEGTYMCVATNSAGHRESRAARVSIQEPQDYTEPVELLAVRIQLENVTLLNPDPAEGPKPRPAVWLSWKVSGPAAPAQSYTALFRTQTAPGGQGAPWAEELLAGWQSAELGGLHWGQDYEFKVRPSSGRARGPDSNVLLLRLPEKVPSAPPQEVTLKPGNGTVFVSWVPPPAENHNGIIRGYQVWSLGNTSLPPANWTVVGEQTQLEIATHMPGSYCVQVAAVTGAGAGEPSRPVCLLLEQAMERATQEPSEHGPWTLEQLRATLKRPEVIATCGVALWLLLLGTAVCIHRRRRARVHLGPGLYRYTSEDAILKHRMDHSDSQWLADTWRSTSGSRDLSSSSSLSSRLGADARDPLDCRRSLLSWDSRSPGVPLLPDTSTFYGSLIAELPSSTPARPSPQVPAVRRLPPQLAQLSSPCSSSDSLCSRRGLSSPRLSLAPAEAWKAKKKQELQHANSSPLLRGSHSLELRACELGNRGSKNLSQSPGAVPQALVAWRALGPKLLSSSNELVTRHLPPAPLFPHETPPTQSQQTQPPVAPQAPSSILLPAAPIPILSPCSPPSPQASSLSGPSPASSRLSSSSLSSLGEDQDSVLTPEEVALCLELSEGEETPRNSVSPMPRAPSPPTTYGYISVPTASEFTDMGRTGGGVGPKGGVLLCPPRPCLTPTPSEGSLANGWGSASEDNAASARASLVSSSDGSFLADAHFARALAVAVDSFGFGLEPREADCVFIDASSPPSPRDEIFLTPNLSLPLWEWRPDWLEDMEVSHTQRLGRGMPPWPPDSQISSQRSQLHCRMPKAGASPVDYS

[3] = molecular target: T3, N末端FLAG−tag付加型ヒトROBO4細胞外領域ドメイン欠損体 hROBO4−132 (human, UniProt Q8WZ75 132-1007)
T3 construct: On HEK293 cells; also called pCI−FLAG−hROBO4−132; pCI−hROBO4−132
T3 sequence: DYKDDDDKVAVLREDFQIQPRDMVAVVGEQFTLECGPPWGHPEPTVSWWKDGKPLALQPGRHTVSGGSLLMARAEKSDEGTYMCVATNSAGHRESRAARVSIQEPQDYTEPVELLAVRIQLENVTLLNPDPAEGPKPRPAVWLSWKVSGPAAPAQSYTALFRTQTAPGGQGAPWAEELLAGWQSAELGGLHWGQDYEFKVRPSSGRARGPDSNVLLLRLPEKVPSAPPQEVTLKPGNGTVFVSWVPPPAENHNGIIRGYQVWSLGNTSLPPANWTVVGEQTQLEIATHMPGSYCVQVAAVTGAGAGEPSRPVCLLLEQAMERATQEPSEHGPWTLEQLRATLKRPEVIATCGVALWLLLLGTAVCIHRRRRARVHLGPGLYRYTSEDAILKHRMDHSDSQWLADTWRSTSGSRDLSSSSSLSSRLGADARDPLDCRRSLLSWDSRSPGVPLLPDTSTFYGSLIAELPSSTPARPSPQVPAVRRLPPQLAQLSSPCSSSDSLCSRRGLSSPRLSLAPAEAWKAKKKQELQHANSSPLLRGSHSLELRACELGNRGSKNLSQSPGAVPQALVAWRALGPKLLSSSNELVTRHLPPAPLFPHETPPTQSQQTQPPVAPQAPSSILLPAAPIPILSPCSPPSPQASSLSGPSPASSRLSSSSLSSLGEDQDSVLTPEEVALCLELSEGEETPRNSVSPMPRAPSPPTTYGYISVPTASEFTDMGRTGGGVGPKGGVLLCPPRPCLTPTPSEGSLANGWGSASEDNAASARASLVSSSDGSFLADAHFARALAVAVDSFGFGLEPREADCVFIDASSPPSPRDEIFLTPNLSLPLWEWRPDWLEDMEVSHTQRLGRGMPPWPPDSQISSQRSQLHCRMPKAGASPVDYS

- binding result [1]: binds
- binding result [2]: binds
- binding result [3]: binds
B1: 抗ROBO4マウスモノクローナル抗体 MAb1 (antibody, V domains shown)
VH: EVQLVESGGGLVKPGGSLKLSCAASGFTFSTYAMSWVRQTPEKRLEWVATISNGGTYTYYPDSVKGRFTISRDNAENTLYLQMSSLRSEDTAMYFCARLIYYDYLDYWGHGTTLTVSS
VL: DAVMTQTPLSLPVSLGDQASISCRSSQSLENSNGNTYLNWYFQKPGQSPQLLIYRVSNRFSGVLDRFSGSGSGTDFTLKISRVEAEDFGVYFCLQVTHVPWTFGGGTKLEIKR
notes: Mouse IgG1 (gamma 1) / kappa from a hybridoma; The constant regions are not in the listing; also called MAb1
